Experimental data from article PMC3691878.

Experiments:
Assay in all cases: SEC
[1] = molecular target: rainbow trout (Oncorhynchus mykiss) BALM (rainbow trout (Oncorhynchus mykiss))
[2] = molecular target: rainbow trout (Oncorhynchus mykiss) RANKL (rainbow trout (Oncorhynchus mykiss))
[3] = molecular target: rainbow trout (Oncorhynchus mykiss) TRAIL-like (rainbow trout (Oncorhynchus mykiss))

Substance: rainbow trout (Oncorhynchus mykiss) BALM (ligand)
- stoichiometry N [1]: 3

Substance: rainbow trout (Oncorhynchus mykiss) RANKL (ligand)
- stoichiometry N [2]: 3

Substance: rainbow trout (Oncorhynchus mykiss) TRAIL-like (ligand)
- stoichiometry N [3]: 3
